The record followed here is the supplement of paper PMC12042874.

This data set is described as follows: amyloid nucleation score (Sup35N fusion, yeast selection) (log enrichment); library NNK1; higher = more nucleation; inactive = no reads after selection. The method in brief:
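On medium lacking adenine and uracil, psi-negative yeast expressing peptides of 20 random codons fused to Sup35N were grown 7 days at 30°C after a 24-hour induction with 100 μM copper sulfate. Illumina sequencing of input and output plasmid inserts gave the reads, and sequences under 100 input reads were excluded. The nucleation score is the DiMSum log enrichment of output over input reads, centred on the mode score of non-aggregating sequences.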

± gives the uncertainty stated by the source.

The substance TKWLLP had an amyloid nucleation score of 0.504 ± 0.57.

On to KVCTHYSTHRWLSSQPSKVV, for which the amyloid nucleation score is -0.696 ± 1.9.

RKPVVGSFIFTTFCKSYVDV had an amyloid nucleation score of 2.9 ± 0.1.

In turn, GKEPVACRIPNKA gave an amyloid nucleation score of 1.17 ± 0.3.

EMALKVVMWC: the amyloid nucleation score result was “inactive”.

FCMVDYWVLVPCDEIGTDVV gave an amyloid nucleation score of 0.116 ± 0.46.

In the case of KVFLRMQRSSGTVKCKSQTE, the amyloid nucleation score is -0.065 ± 0.41.

Regarding GSKSFPSSGSSMQAAGTSSG, the amyloid nucleation score is -0.069 ± 0.36.

As to MCGNDWVYGDWIRSEIHGSS, the amyloid nucleation score was -0.403 ± 0.59.

In turn, EDSLPLDMEVNLGRIVEPKM displayed an amyloid nucleation score of 1.14 ± 0.59.

Consider PRKACTIGWLGSINLERGEE, for which the amyloid nucleation score was -0.681 ± 0.74.

The substance NSCRCYFLLGELDLNAFNSV came in with an amyloid nucleation score of 1.74 ± 0.55.

With VLIKLCGYTILIRFGRFLCR, the amyloid nucleation score was -0.203 ± 0.61.

Consider VSTCTL, for which the amyloid nucleation score entry was “inactive”.

For SRVVFTSM, the amyloid nucleation score is -1.18 ± 1.6.

FLLLAC displayed an amyloid nucleation score of 0.197 ± 0.9.

IILLNNYTDMHIPEGIGVTM showed an amyloid nucleation score of 0.466 ± 1.4.

IGVRRFFLWS: the amyloid nucleation score is -0.753 ± 0.48.

Take KIGLNCFE: the amyloid nucleation score result is “inactive”.

On to SHEGTGLGMGAVG, for which the amyloid nucleation score is -0.01 ± 0.36.

As for GCFMLSSGLGISEPGSFWWG, the amyloid nucleation score came out at 0.224 ± 0.53.

As for QRARIINRKHV, the amyloid nucleation score stood at 0.214 ± 0.74.

In the case of FNLALDRGR, the amyloid nucleation score is -0.062 ± 0.32.

On to MSMMLTRIAHTLSESWRTHW, for which the amyloid nucleation score was -0.09 ± 0.97.

The substance HIDWSNVSYGDDRYGSGDCR showed an amyloid nucleation score of 0.142 ± 0.19.

For the substance LNSYVRG, the amyloid nucleation score was found to be 0.201 ± 0.3.

In turn, ENLVFTY yielded an amyloid nucleation score of 0.01 ± 0.28.

In turn, NHLVG came in with an amyloid nucleation score of 0.526 ± 1.4.

With KTCYTVFSRPYENWS, the amyloid nucleation score amounted to 0.625 ± 0.48.

Take NVLVGFI: the amyloid nucleation score was -0.851 ± 0.56.

In the case of VGCFLIKSGEQ, the amyloid nucleation score was -0.385 ± 0.36.

As for HLRIGLNDVSLIISLTDKRT, the amyloid nucleation score was -1.07 ± 0.47.

IMLTGLRLHVVDGEKLPMTS gave an amyloid nucleation score of 1.01 ± 0.71.

With SFRSLFVFYDN, the amyloid nucleation score result was “inactive”.

In the case of NYLGLLSEAVSRGVQLGDAT, the amyloid nucleation score result is “inactive”.

In turn, FTSRYLDF showed an amyloid nucleation score of 0.382 ± 1.2.

For the substance HGMWNTQVTVTWYTSADLFV, the amyloid nucleation score was -0.093 ± 0.52.

KNSIYSCVTRTFSPMVLRYC: the amyloid nucleation score is 0.557 ± 0.54.

In the case of GPWGQICSDTFYLLFVWVSW, the amyloid nucleation score turned out to be 0.133 ± 0.37.

As to LRRLNRHFIVTFFNGTRCDF, the amyloid nucleation score is 2.1 ± 0.26.

The substance VFNLMI gave an amyloid nucleation score of 0.381 ± 0.28.

The substance GTLVLYFCGVC gave an amyloid nucleation score of 6.62 ± 0.059.

The substance FTALPSTVVIVQHTLHLDSF had an amyloid nucleation score of 6.48 ± 0.066.

LPFEVRLDCDVVGGG returned an amyloid nucleation score of 0.725 ± 0.48.

Consider MRVHFLE, for which the amyloid nucleation score came out at 0.136 ± 0.41.

Take QSLSLVVPDIVMIKTPN: the amyloid nucleation score entry is “inactive”.

With ALKGSRHDL, the amyloid nucleation score was -0.037 ± 0.73.

Take WHALVNRGHAWSRIGQDAGC: the amyloid nucleation score was -0.003 ± 0.79.

PIIVDRCCFDYIRRVNVLYN had an amyloid nucleation score of 0.677 ± 0.48.

Take RISTCIEILYDS: the amyloid nucleation score was -0.587 ± 0.37.

Take VLYLDLFWRPPSLKGLL: the amyloid nucleation score is -0.17 ± 0.32.

As for SHNVKSWCRYSDGQKGLCKY, the amyloid nucleation score was found to be 1.62 ± 0.43.

On to GFSLSPRAWRTGGVWAECAE, for which the amyloid nucleation score was found to be 0.7 ± 0.82.

In the case of TNSFYYGSVSTCYSRCNCKF, the amyloid nucleation score was 7.362 ± 0.048.

The substance SARRRRYGEAGSLGHELQWT displayed an amyloid nucleation score of 0.675 ± 0.78.

Take SLFLGVVHFAVRVSLGSVWG: the amyloid nucleation score is -0.771 ± 0.82.

In the case of KDCCMLDIYVEAWSGSFGRK, the amyloid nucleation score was determined as 1.44 ± 0.2.

Regarding GKNTYVCVGSSASSFWGSLL, the amyloid nucleation score amounted to 0.86 ± 0.77.

Turning to EDGPWACTCYYCGQGRRTWV, the amyloid nucleation score was 0.16 ± 0.9.
